Laboratory results as given in US20140120109A1 (Regeneron, published 2014).
Changes are numbered by the printed parent chain. Names may count otherwise. One block for each binder: values may come before it.

Assays:
[1] = target: T1, full length human TL1A expressed on HEK293 cells (human, UniProt O95150 1-251); test: flow, HEK293/hTL1A, mAb 1 ug/ml, no soluble hTL1A (maximum signal)
T1 construct: also called HEK293/hTL1A; cell-surface hTL1A
T1 sequence: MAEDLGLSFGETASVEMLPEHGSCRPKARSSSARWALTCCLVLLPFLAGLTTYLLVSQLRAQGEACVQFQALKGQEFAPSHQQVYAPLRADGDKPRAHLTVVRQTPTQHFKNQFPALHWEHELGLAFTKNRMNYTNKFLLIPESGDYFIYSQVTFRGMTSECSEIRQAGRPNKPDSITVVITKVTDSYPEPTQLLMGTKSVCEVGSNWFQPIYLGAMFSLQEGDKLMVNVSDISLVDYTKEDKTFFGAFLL
Procedure: (§1) Human embryonic kidney 293 cells stably transfected to over-express cell-surface hTL1A were first stained in a flow cytometric experiment with eight anti-hTL1A antibodies at four concentrations (1, 0.1, 0.01, and 0.003 μg/ml). […] The lowest antibody concentration providing significant staining levels was then used in a competition binding experiment. A negative isotype control antibody (human IgG4) was used at 1 μg/ml to define the background signal. For the competition experiment, eight antibody samples, at the minimal concentrations identified above, were first treated with soluble hTL1A expressed from CHO cells at concentrations ranging from 0.03 μg/ml to 10 μg/ml. After pre-incubation for 30 min on ice, the antibody/hTL1A mixture was added to 293/HEK-hTL1A cells that had been isolated by centrifugation in a 96-well conical plate. After incubation for an additional 10 minutes on ice, the cells were washed. The secondary reagent, anti-h Fcγ-APC F(ab′)₂, was added to all wells at a 200-fold dilution to detect bound antibodies. Samples were incubated for 15 minutes on ice, away from light, and then washed. Cells were processed on an BD™ LSR II Flow Cytometer (BD Biosciences) to detect anti-hTL1A antibodies bound to the cell surface, and data were analyzed using FlowJo software (version 8.8.6; Tree Star Inc.). Maximum signal: Anti-hTL1A antibody binding in the absence of soluble hTL1A; Minimum signal: Signal recorded when […] of isotype control antibody was added in place of the anti-hTL1A antibody. NT: Not tested.

[2] = target: T2, human TL1A, soluble, CHO-expressed, residues 72-251 of SEQ ID NO:244 with N-terminal His6-tag (human, UniProt O95150 72-251); test: cell-based or functional assay
T2 sequence: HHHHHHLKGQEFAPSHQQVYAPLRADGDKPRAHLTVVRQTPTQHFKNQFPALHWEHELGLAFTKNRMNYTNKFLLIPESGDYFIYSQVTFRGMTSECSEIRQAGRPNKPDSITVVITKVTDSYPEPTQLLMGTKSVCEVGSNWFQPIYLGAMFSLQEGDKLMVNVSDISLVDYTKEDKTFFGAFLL

[3] = target: T1, full length human TL1A expressed on …; test: flow, HEK293/hTL1A, mAb 1 ug/ml + 3 ug/ml soluble hTL1A
Procedure: as §1

[4] = target: T3, cynomolgus monkey TL1A, soluble, CHO-expressed, residues 72-251 of SEQ ID NO:248 with N-terminal His6-tag (cynomolgus monkey (Macaca fascicularis), UniProt O95150 72-251 (human entry)); test: SPR 37C, mAb captured; kd set at 1e-6 1/s
T3 construct: also called MfTL1A; MfTL1A (CHO)
T3 chain: T2 sequence with F45L, I84V
Procedure: (§2) Measurements were conducted on a T100 BIACORE™ instrument. […] Kinetic association (kₐ) and dissociation (kd) rate constants were determined by fitting the data to a 1:1 binding model using BIAevaluation 4.1 curve fitting software (BIAcore Life Sciences). Molar concentrations of TL1A/Fhm used in the data fitting assumed a monomeric state for TL1A in solution. Binding dissociation equilibrium constants (KD) and dissociative half-lives (t_{1/2}) were calculated from the kinetic rate constants as: KD (M)=kd/kₐ; and t_{1/2} (min)=[In2/(60*kd)].

[5] = target: T2, human TL1A, soluble, CHO-expressed, …; test: SPR 37C, mAb captured; kd set at 1e-6 1/s
Procedure: as §2

MFI [1]: 110
% Blocking IFN-g, D1, 1 ug/ml mAb [2]: 100%
% Blocking IFN-g, D1, 3 ug/ml mAb [2]: 100%
% Blocking IFN-g, D2, 1 ug/ml mAb [2]: 100%
% Blocking IFN-g, D2, 3 ug/ml mAb [2]: 100%
% Blocking IFN-g, D3, 1 ug/ml mAb [2]: 90%
% Blocking IFN-g, D3, 3 ug/ml mAb [2]: 100%
% Blocking IFN-g, D4, 1 ug/ml mAb [2]: 90%
% Blocking IFN-g, D4, 3 ug/ml mAb [2]: 100%
% Blocking IFN-g, D5, 1 ug/ml mAb [2]: 100%
% Blocking IFN-g, D5, 3 ug/ml mAb [2]: 100%
% Blocking IFN-g, D6, 1 ug/ml mAb [2]: 45%
% Blocking IFN-g, D6, 3 ug/ml mAb [2]: 100%
% Blocking IFN-g, D7, 1 ug/ml mAb [2]: 55%
% Blocking IFN-g, D7, 3 ug/ml mAb [2]: 100%
% Blocking IFN-g, D8, 1 ug/ml mAb [2]: 100%
% Blocking IFN-g, D8, 3 ug/ml mAb [2]: 100%
% Blocking IFN-g, D9, 1 ug/ml mAb [2]: 55%
% Blocking IFN-g, D9, 3 ug/ml mAb [2]: 95%
% Blocking IFN-g, D10, 1 ug/ml mAb [2]: 80%
% Blocking IFN-g, D10, 3 ug/ml mAb [2]: 85%
MFI [3]: 25.2
B1: H4H1817N (antibody, human IgG4 S228P, V domains shown)
VH: QVQLQQWGAGLLKPSETLSLTCAVSGGSFSDYFWTWIRQPPGKGLEWIGEISHSGRTNYNPSLKSRVTISVDTSMSQFSLKMTSVTAADSAVYYCARDYPNWVFDYWGQGTLVTVSS
VL: EIELTQSPGTLSLSPGEGATLSCRASQSVFNSYLAWYQQKPGQAPRLLIYGASRRATGIPDRFSGSGSGTDFTLTISRLEPGDFAVYFCQQYGNSPLTFGGGTKVEIK
notes: human IgG4(S108P) form of H2M1817N

Kd [4]: ≤ 4.45 pM
t1/2 [4]: ≥ 192 h
Kd [5]: ≤ 4.37 pM
t1/2 [5]: ≥ 192 h
MFI [1]: 126
MFI [3]: 19.9
B2: H4H1742P (antibody, human IgG4 S228P, V domains shown)
VH: EVQLVESGGGLVQPGGSLRLSCAASGFTFSNYVMNWVRQAPGKGLEWVSVISGSGGSTHYADSVKGRFTISRDNSKDALYLQMNSLRAEDTAVYYCAKGPLEAYYYYNGMDVWGQGTTVTVSS
VL: DIQLTQSPSFLSASVGDRVTITCWASQAISSYLAWYQHKPGRAPKLLIYSTSTLQSGVPSRFSGSGSGTEFTLTISSLQPEDFATYYCQQLNSYPTFGQGTKLEIK
